Measured values as given in patent publication US5770691A, “Discriminatory substrates for MMP hydrolysis” (Regents of the University of Minnesota, priority 1995, dated 1998).

B1: MMP-1 (Homo sapiens) (protein)
chain: FVLTEGNPRWEQTHLTYRIENYTPDLPRADVDHAIEKAFQLWSNVTPLTFTKVSEGQADIMISFVRGDHRDNSPFDGPGGNLAHAFQPGPGIGGDAHFDEDERWTNNFREYNLHRVAAHELGHSLGLSHSTDIGALMYPSYTFSGDVQLAQDDIDGIQAIYGRSQNPVQPIGPQTPKACDSKLTFDAITTIRGEVMFFKDRFYMRTNPFYPEVELNFISVFWPQLPNGLEAAYEFADRDEVRFFKGNKYWAVQGQNVLHGYPKDIYSSFGFPRTVKHIDAALSEENTGKTYFFVANKYWRYDEYKRSMDPGYPKMIAHDFPGIGHKVDAVFMKDGFFYFFHGTRQYKFDPKTKRILTLQKANSWFNCRKN
notes: made in house; host or cells: native secreted protein purified from culture medium of human rheumatoid synovial cells
B2: MMP-2 (Homo sapiens) (protein)
chain: YNFFPRKPKWDKNQITYRIIGYTPDLDPETVDDAFARAFQVWSDVTPLRFSRIHDGEADIMINFGRWEHGDGYPFDGKDGLLAHAFAPGTGVGGDSHFDDDELWTLGEGQVVRVKYGNADGEYCKFPFLFNGKEYNSCTDTGRSDGFLWCSTTYNFEKDGKYGFCPHEALFTMGGNAEGQPCKFPFRFQGTSYDSCTTEGRTDGYRWCGTTEDYDRDKKYGFCPETAMSTVGGNSEGAPCVFPFTFLGNKYESCTSAGRSDGKMWCATTANYDDDRKWGFCPDQGYSLFLVAAHEFGHAMGLEHSQDPGALMAPIYTYTKNFRLSQDDIKGIQELYGASPDIDLGTGPTPTLGPVTPEICKQDIVFDGIAQIRGEIFFFKDRFIWRTVTPRDKPMGPLLVATFWPELPEKIDAVYEAPQEEKAVFFAGNEYWIYSASTLERGYPKPLTSLGLPPDVQRVDAAFNWSKNKKTYIFAGDKFWRYNEVKKKMDPGFPKLIADAWNAIPDNLDAVVDLQGGGHSYFFKGAYYLKLENQSLKSVKFGSIKSDWLGC
notes: as for B1

Assays:
Format in all cases: biochemical, human
[1] = substrate: CCC[C@H](NC(=O)[C@H](C)NC(=O)[C@H](Cc1ccc(O)cc1)NC(=O)[C@@H]1CCCN1C(=O)[C@H](CCCCN)NC(=O)[C@@H]1CCCN1C(=O)[C@H](CCCNC(=N)N)NC(=O)Cc1cc(=O)oc2cc(OC)ccc12)C(=O)N[C@@H](Cc1c[nH]c2ccccc12)C(=O)N[C@@H](CCSC)C(=O)N[C@@H](CCCCNc1ccc([N+](=O)[O-])cc1[N+](=O)[O-])C(N)=O; test: Fluorometric hydrolysis of synthetic Mca/Lys(Dnp) substrates by MMP-1; settings: other: MMP-1, 37° C., pH 7.5
Source text: (§1) All MMPs were purified in zymogen form. ProMMP-1 (Suzuki et al., Biochem., 29, 10261 (1990)), proMMP-2 (Okada et al., Eur. J. Biochem., 194, 721 (1990)), and proMMP-3 (Ito et al., Arch. Biochem. Biophys., 267, 211 (1988)) were purified from the culture medium of human rheumatoid synovial cells stimulated with rabbit macrophage-conditioned medium. ProMMP-9 was purified from the culture medium of HT-1080 cells as described in Morodomi et al., Biochem. J., 285, 603 (1992). ProMMP-2 and proMMP-9 were activated by reacting with 1 mM 4-aminophenylmercuric acetate at 37° C. for 45 minutes and 32 hours, respectively. ProMMP-1 was activated by reacting with 1 mM 4-aminophenylmercuric acetate and an equimolar amount of MMP-3 at 37° C. for 6 hours. After activation, MMP-3 was completely removed from MMP-1 by affinity chromatography using an anti-MMP-3 IgG Affi-Gel 10 column. The resin, Affi-Gel 10 (Biorad, Emoryville, Calif.), was coupled to anti-MMP-3 IgG (Okada et al., Annals of Rheumat. Dis., 48, 645 (1989)) per the manufacturer's protocol. Pro-MMP-3 was activated by reacting with 5 μg/mL chymotrypsin at 37° C. for 2 hours. Chymotrypsin was inactivated with 2 mM diisopropylfluorophosphate. The amounts of active MMP-1, MMP-2, and MMP-3 were determined by titration with tissue inhibitor of metalloproteinase-1(TIMP1) over a concentration range of 0.1-3 μg/mL, while the amount of active MMP-9 was determined by titration with TIMP-2 (0.1-3 μg/mL). TIMP-1 was isolated from the medium of HT-1080 cells as described in Morodomi et al., Biochem J., 285, 603 (1992).
(§2) Substrates were prepared as 10 mM stock solutions in dimethylsulfoxide (DMSO). Fluorescent assays were performed at λex =325 nm and λem =393 nm, which should encounter no interference from Trp residues, using a Hitachi fluorescence spectrophotometer F-3010. Initial total hydrolysis assays were run at a substrate concentration of […] to avoid filtering effects. The change in fluorescence at this concentration was 110 based on total hydrolysis of 1 μM substrate. A typical assay was carried out by incubating 100 μL of various concentrations of a substrate with 10 μL of an enzyme solution (2-20 nM) in 50 mM Tris-HCl, pH 7.5, 0.15M NaCl, 10 mM CaCl2, 0.05% Brij 35, 0.02% NaN3. The reaction was stopped by addition of 900 μl of 3% (v/v) glacial acetic acid. MMP-3 activity at pH 6.0 was measured in 50 mM sodium acetate buffer, pH 6.0, instead of Tris-HCl buffer. The amount of substrate hydrolysis was calculated based on the fluorescence values of the Mca-Arg-Pro-Lys-Pro-Gln standard solution after substraction of the reaction blank value (stopping solution added before the enzyme). Individual kinetic parameters (kcat and KM) were determined over a substrate concentration range of 2.5-75 μM and calculated by double reciprocal plots.

[2] = substrate: COc1ccc2c(CC(=O)N3CCC[C@H]3C(=O)N[C@@H](CCCCN)C(=O)N3CCC[C@H]3C(=O)N[C@@H](CCC(N)=O)C(=O)N[C@@H](CCC(N)=O)C(=O)N[C@@H](Cc3ccccc3)C(=O)N[C@@H](Cc3ccccc3)C(=O)NCC(=O)N[C@@H](CC(C)C)C(=O)N[C@@H](CCCCNc3ccc([N+](=O)[O-])cc3[N+](=O)[O-])C(=O)NCC(=O)O)cc(=O)oc2c1; test: as above; settings: other: MMP-1, 37° C., pH 7.5
Source text: as §1, §2

[3] = substrate: CCC[C@H](NC(=O)[C@H](C)NC(=O)[C@H](Cc1ccc(O)cc1)NC(=O)[C@@H]1CCCN1C(=O)[C@H](CCCCN)NC(=O)[C@@H]1CCCN1C(=O)[C@H](CCCNC(=N)N)NC(=O)Cc1cc(=O)oc2cc(OC)ccc12)C(=O)N[C@@H](Cc1c[nH]c2ccccc12)C(=O)N[C@@H](CCSC)C(=O)N[C@@H](CCCCNc1ccc([N+](=O)[O-])cc1[N+](=O)[O-])C(N)=O; test: Fluorometric hydrolysis of synthetic Mca/Lys(Dnp) substrates by MMP-2; settings: other: MMP-2, 37° C., pH 7.5
Source text: as §1, §2

[4] = substrate: COc1ccc2c(CC(=O)N3CCC[C@H]3C(=O)N[C@@H](CCCCN)C(=O)N3CCC[C@H]3C(=O)N[C@@H](CCC(N)=O)C(=O)N[C@@H](CCC(N)=O)C(=O)N[C@@H](Cc3ccccc3)C(=O)N[C@@H](Cc3ccccc3)C(=O)NCC(=O)N[C@@H](CC(C)C)C(=O)N[C@@H](CCCCNc3ccc([N+](=O)[O-])cc3[N+](=O)[O-])C(=O)NCC(=O)O)cc(=O)oc2c1; test: as above; settings: other: MMP-2, 37° C., pH 7.5
Source text: as §1, §2

| Protein | Km [1] | kcat [1] | kcat/Km [1] | Km [2] | kcat [2] | kcat/Km [2] | Km [3] | kcat [3] | kcat/Km [3] | Km [4] | kcat [4] | kcat/Km [4] |
| --- | --- | --- | --- | --- | --- | --- | --- | --- | --- | --- | --- | --- |
| B1 | 142 µM | 0.15 S^-1 | 1,060 S^-1 M^-1 | 16.6 µM | 0.04 S^-1 | 2,510 S^-1 M^-1 |  |  |  |  |  |  |
| B2 |  |  |  |  |  |  | 50 µM | 2.70 S^-1 | 54,000 S^-1 M^-1 | 100 µM | 1.07 S^-1 | 10,800 S^-1 M^-1 |
